In patent US20250304717A1, “CAMPTOTHECIN DERIVATIVE AND LIGAND-DRUG CONJUGATE” (HAINAN SIMCERE ZAIMING PHARMACEUTICAL CO., LTD., priority 2022, published 2025):

T1: CDH6 on OVCAR3 cells (human, UniProt P55285 54-790)
T1 construct: whole, on cells; also called CDH6 positive cells OVCAR3; CDH6 high-expression cell strain
T1 sequence (looked up): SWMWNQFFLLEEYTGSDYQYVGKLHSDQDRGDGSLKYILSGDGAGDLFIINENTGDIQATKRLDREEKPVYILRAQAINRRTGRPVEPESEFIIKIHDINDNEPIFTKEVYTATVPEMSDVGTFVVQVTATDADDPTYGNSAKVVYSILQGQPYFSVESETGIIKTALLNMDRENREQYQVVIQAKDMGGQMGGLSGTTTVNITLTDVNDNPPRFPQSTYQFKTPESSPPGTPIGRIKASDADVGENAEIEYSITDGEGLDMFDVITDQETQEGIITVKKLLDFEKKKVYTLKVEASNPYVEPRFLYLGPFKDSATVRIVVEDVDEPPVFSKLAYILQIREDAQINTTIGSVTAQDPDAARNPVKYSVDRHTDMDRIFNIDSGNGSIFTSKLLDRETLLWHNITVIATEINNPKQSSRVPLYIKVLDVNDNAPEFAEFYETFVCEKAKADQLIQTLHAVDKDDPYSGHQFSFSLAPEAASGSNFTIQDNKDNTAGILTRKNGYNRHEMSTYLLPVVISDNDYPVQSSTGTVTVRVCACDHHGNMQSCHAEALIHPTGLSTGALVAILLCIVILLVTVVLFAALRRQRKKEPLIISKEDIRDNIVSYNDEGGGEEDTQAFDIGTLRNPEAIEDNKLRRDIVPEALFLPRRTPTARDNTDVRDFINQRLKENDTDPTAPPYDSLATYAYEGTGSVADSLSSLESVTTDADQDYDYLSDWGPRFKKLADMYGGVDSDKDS


target: T1, CDH6 on OVCAR3 cells; test: flow cytometry (FACS) on OVCAR3 cells, Alexa Fluor 647 anti-human Fc secondary antibody, MFI, four-parameter fit
Protocol: OVCAR3 cells were collected, counted, and plated in a 96-well plate (Corning, 3795) at 2×10⁵ cells/well. The serially diluted sample to be detected was added and incubated at 4° C. for 1 h. After the mixture was washed twice with ice PBS, Alexa Fluor-647 Goat anti-human Fc secondary antibody (JacksonImmuno, 109-605-098) was added, and the mixture was incubated at 4° C. for 1 h. After the mixture was washed twice with ice PBS, the cells were resuspended, and the mean fluorescence intensity (MFI) was analyzed using a flow cytometer (BD FACSCanto™ II). Data were analyzed by four-parameter curve fitting using Graphpad Prism software to give EC₅₀ values.

Binder | EC50 [nM]
ADC-L1-14-P1-3 (antibody, human IgG1, kappa, V domains shown, drug-linker L1-14-P1 on cysteine thiols after TCEP reduction; positions not given; DAR 8.5 for the whole conjugate, Antibody-drug conjugate) VH: EVQLVQSGAEVKKPGASVKVSCKASGYTFTRNFMHWVRQAPGQGLEWMGWIYPGDGETEYAQKFQGRVTITADTSTSTAYMELSSLRSEDTAVYYCARGVYGGFAGGYFDFWGQGTLVTVSS VL: DIQMTQSPSSLSASVGDRVTITCKASQNIYKNLAWYQQKPGKAPKLLIYDANTLQTGVPSRFSGSGSGSDFTLTISSLQPEDFATYFCQQYYSGWAFGQGTKVEIKR | 0.49
ADC-L1-19-P1-3 (antibody, human IgG1, kappa, V domains shown, drug-linker L1-19-P1 on cysteine thiols after TCEP reduction; positions not given; DAR 7.2 for the whole conjugate, Antibody-drug conjugate) VH: EVQLVQSGAEVKKPGASVKVSCKASGYTFTRNFMHWVRQAPGQGLEWMGWIYPGDGETEYAQKFQGRVTITADTSTSTAYMELSSLRSEDTAVYYCARGVYGGFAGGYFDFWGQGTLVTVSS VL: DIQMTQSPSSLSASVGDRVTITCKASQNIYKNLAWYQQKPGKAPKLLIYDANTLQTGVPSRFSGSGSGSDFTLTISSLQPEDFATYFCQQYYSGWAFGQGTKVEIKR | 0.36
CDH6-Ab (antibody, human IgG1, kappa, V domains shown, also called anti-human CDH6 monoclonal antibody CDH6-Ab) VH: EVQLVQSGAEVKKPGASVKVSCKASGYTFTRNFMHWVRQAPGQGLEWMGWIYPGDGETEYAQKFQGRVTITADTSTSTAYMELSSLRSEDTAVYYCARGVYGGFAGGYFDFWGQGTLVTVSS VL: DIQMTQSPSSLSASVGDRVTITCKASQNIYKNLAWYQQKPGKAPKLLIYDANTLQTGVPSRFSGSGSGSDFTLTISSLQPEDFATYFCQQYYSGWAFGQGTKVEIKR | 0.71
ADC-L1-19-3 (antibody, human IgG1, kappa, V domains shown, drug-linker L1-19 on cysteine thiols after TCEP reduction; positions not given; DAR 7.1 for the whole conjugate, Antibody-drug conjugate) VH: EVQLVQSGAEVKKPGASVKVSCKASGYTFTRNFMHWVRQAPGQGLEWMGWIYPGDGETEYAQKFQGRVTITADTSTSTAYMELSSLRSEDTAVYYCARGVYGGFAGGYFDFWGQGTLVTVSS VL: DIQMTQSPSSLSASVGDRVTITCKASQNIYKNLAWYQQKPGKAPKLLIYDANTLQTGVPSRFSGSGSGSDFTLTISSLQPEDFATYFCQQYYSGWAFGQGTKVEIKR | 0.34
ADC-L1-19-5 (antibody, human IgG1, kappa, V domains shown, drug-linker L1-19 on cysteine thiols after TCEP reduction; positions not given; DAR 6.8 for the whole conjugate, Antibody-drug conjugate) VH: EVQLVQSGAEVKKPGASVKVSCKASGYTFTDNYINWVRQAPGQRLEWMGWIYPGTGNSYYNEKFKGRVTITVDTSASTAYMELSSLRSEDTAVYLCASSYGDSFDYWGQGTTVTVSS VL: DIVMTQSPDSLAVSLGERATINCRASQDIRNYLNWYQQKPGQTPKLLISYTSRLHSGVPDRFSGSGSGTDFTLTISSLQAEDVAVYYCQQYSQLPWTFGGGTKVEIKR | 0.51

target: human ROR1 on stably transfected cell strain MCF7-hROR1 clone 2G2 (human, UniProt Q01973 30-406); test: flow cytometry (FACS) on MCF7-hROR1 clone 2G2 cells, 5-fold dilutions from 100 nM, Alexa Fluor 647 anti-human IgG secondary antibody, four-parameter fit
Protocol: Stably transfected cell strain MCF7-hROR1 clone 2G2 constructed in the steps described above was expanded to a logarithmic growth phase in a T-75 cell culture flask, and the medium supernatant was discarded after centrifugation. The cell pellet was washed twice with PBS. […] After the mixture was washed twice with PBS, a secondary antibody was added: Alexa Fluor® 647 AffiniPure Goat Anti-Human IgG (H+L) (purchased from Jackson Immuno, Cat. No: 109-605-088), and the mixture was incubated at 4° C. for 1 h. After the mixture was washed twice with PBS, the cells were resuspended, and detected and analyzed by FACS (FACS Canto™, purchased from BD Biosciences). Data were analyzed by four-parameter curve fitting using Graphpad Prism software to give EC₅₀ values.

Binder | EC50 [nM]
ADC-L1-19-10 (antibody, human IgG1, kappa, V domains shown, drug-linker L1-19 on cysteine thiols after TCEP reduction; positions not given; DAR 7.2 for the whole conjugate, Antibody-drug conjugate) VH: QVQLRESGPGLVKPSETLSLTCTVSGFDISSYYMSWVRQPPGKGLEWIGAIGISGNAYYASWAKSRVTISRDTSKNQFSLKLSSVTAADTAVYYCARDHPTYGMDLWGPGTLVTVSS VL: SYELTQPPSVSVAPGKTARITCEGNNIGSKAVHWYQQKPGQAPVLVIYDDDERPSGIPERFSGSNSGNTATLTISRVEAGDEADYYCQVWDSSAYVFGGGTKLTVLR | 0.98
ROR1-Ab-3 (antibody, human IgG1, kappa, V domains shown, also called anti-human ROR1 monoclonal antibody ROR1-Ab-3) VH: QVQLRESGPGLVKPSETLSLTCTVSGFDISSYYMSWVRQPPGKGLEWIGAIGISGNAYYASWAKSRVTISRDTSKNQFSLKLSSVTAADTAVYYCARDHPTYGMDLWGPGTLVTVSS VL: SYELTQPPSVSVAPGKTARITCEGNNIGSKAVHWYQQKPGQAPVLVIYDDDERPSGIPERFSGSNSGNTATLTISRVEAGDEADYYCQVWDSSAYVFGGGTKLTVLR | 0.91
ADC-L1-19-P1-10 (antibody, human IgG1, kappa, V domains shown, drug-linker L1-19-P1 on cysteine thiols after TCEP reduction; positions not given; DAR 8.0 for the whole conjugate, Antibody-drug conjugate) VH: QVQLRESGPGLVKPSETLSLTCTVSGFDISSYYMSWVRQPPGKGLEWIGAIGISGNAYYASWAKSRVTISRDTSKNQFSLKLSSVTAADTAVYYCARDHPTYGMDLWGPGTLVTVSS VL: SYELTQPPSVSVAPGKTARITCEGNNIGSKAVHWYQQKPGQAPVLVIYDDDERPSGIPERFSGSNSGNTATLTISRVEAGDEADYYCQVWDSSAYVFGGGTKLTVLR | 0.57
ADC-L1-0-10 (antibody, human IgG1, kappa, V domains shown, drug-linker L1-0 on cysteine thiols after TCEP reduction; positions not given; DAR 7.5 for the whole conjugate) VH: QVQLRESGPGLVKPSETLSLTCTVSGFDISSYYMSWVRQPPGKGLEWIGAIGISGNAYYASWAKSRVTISRDTSKNQFSLKLSSVTAADTAVYYCARDHPTYGMDLWGPGTLVTVSS VL: SYELTQPPSVSVAPGKTARITCEGNNIGSKAVHWYQQKPGQAPVLVIYDDDERPSGIPERFSGSNSGNTATLTISRVEAGDEADYYCQVWDSSAYVFGGGTKLTVLR | 1.25
ADC-L1-19-9 (antibody, human IgG1, kappa, V domains shown, drug-linker L1-19 on cysteine thiols after TCEP reduction; positions not given; DAR 7.3 for the whole conjugate, Antibody-drug conjugate) VH: EVQLLESGGGLVQPGGSLRLSCAASGFTFSNYAMSWVRQAPGKGLEWVSSISHNSGSTYYADSVKGRFTISRDNSKNTLYLQMNSLRAEDTAVYYCAKFISARKSLGRSYSNGMDVWGQGTLVTVSS VL: QSVLTQPPSASGTPGQRVTISCTGSSSNIGSNDVTWYQQLPGTAPKLLIYADSKRPSGVPDRFSGSKSGTSASLAISGLRSEDEADYYCGTWDYSLSGYVFGGGTKLTVLR | 0.42
ROR1-Ab-2 (antibody, human IgG1, kappa, V domains shown, also called anti-human ROR1 monoclonal antibody ROR1-Ab-2) VH: EVQLLESGGGLVQPGGSLRLSCAASGFTFSNYAMSWVRQAPGKGLEWVSSISHNSGSTYYADSVKGRFTISRDNSKNTLYLQMNSLRAEDTAVYYCAKFISARKSLGRSYSNGMDVWGQGTLVTVSS VL: QSVLTQPPSASGTPGQRVTISCTGSSSNIGSNDVTWYQQLPGTAPKLLIYADSKRPSGVPDRFSGSKSGTSASLAISGLRSEDEADYYCGTWDYSLSGYVFGGGTKLTVLR | 0.98
ADC-L1-19-P1-9 (antibody, human IgG1, kappa, V domains shown, drug-linker L1-19-P1 on cysteine thiols after TCEP reduction; positions not given; DAR 7.7 for the whole conjugate, Antibody-drug conjugate) VH: EVQLLESGGGLVQPGGSLRLSCAASGFTFSNYAMSWVRQAPGKGLEWVSSISHNSGSTYYADSVKGRFTISRDNSKNTLYLQMNSLRAEDTAVYYCAKFISARKSLGRSYSNGMDVWGQGTLVTVSS VL: QSVLTQPPSASGTPGQRVTISCTGSSSNIGSNDVTWYQQLPGTAPKLLIYADSKRPSGVPDRFSGSKSGTSASLAISGLRSEDEADYYCGTWDYSLSGYVFGGGTKLTVLR | 0.5
ADC-L1-0-9 (antibody, human IgG1, kappa, V domains shown, drug-linker L1-0 on cysteine thiols after TCEP reduction; positions not given; DAR 5.5 for the whole conjugate) VH: EVQLLESGGGLVQPGGSLRLSCAASGFTFSNYAMSWVRQAPGKGLEWVSSISHNSGSTYYADSVKGRFTISRDNSKNTLYLQMNSLRAEDTAVYYCAKFISARKSLGRSYSNGMDVWGQGTLVTVSS VL: QSVLTQPPSASGTPGQRVTISCTGSSSNIGSNDVTWYQQLPGTAPKLLIYADSKRPSGVPDRFSGSKSGTSASLAISGLRSEDEADYYCGTWDYSLSGYVFGGGTKLTVLR | 0.43
ADC-L1-19-8 (antibody, human IgG1, kappa, V domains shown, drug-linker L1-19 on cysteine thiols after TCEP reduction; positions not given; DAR 7.1 for the whole conjugate, Antibody-drug conjugate) VH: QVQLQESGPGLVKPSQTLSLTCTVSGYAFTAYNIHWVRQAPGQGLEWMGSFDPYDGGSSYNQKFKDRLTISKDTSKNQVVLTMTNMDPVDTATYYCARGWYYFDYWGHGTLVTVSS VL: DIVMTQTPLSLPVTPGEPASISCRASKSISKYLAWYQQKPGQAPRLLIYSGSTLQSGIPPRFSGSGYGTDFTLTINNIESEDAAYYFCQQHDESPYTFGEGTKVEIKR | 0.68
ROR1-Ab-1 (antibody, human IgG1, kappa, V domains shown, also called anti-human ROR1 monoclonal antibody ROR1-Ab-1) VH: QVQLQESGPGLVKPSQTLSLTCTVSGYAFTAYNIHWVRQAPGQGLEWMGSFDPYDGGSSYNQKFKDRLTISKDTSKNQVVLTMTNMDPVDTATYYCARGWYYFDYWGHGTLVTVSS VL: DIVMTQTPLSLPVTPGEPASISCRASKSISKYLAWYQQKPGQAPRLLIYSGSTLQSGIPPRFSGSGYGTDFTLTINNIESEDAAYYFCQQHDESPYTFGEGTKVEIKR | 0.99
ADC-L1-19-P1-8 (antibody, human IgG1, kappa, V domains shown, drug-linker L1-19-P1 on cysteine thiols after TCEP reduction; positions not given; DAR 7.7 for the whole conjugate, Antibody-drug conjugate) VH: QVQLQESGPGLVKPSQTLSLTCTVSGYAFTAYNIHWVRQAPGQGLEWMGSFDPYDGGSSYNQKFKDRLTISKDTSKNQVVLTMTNMDPVDTATYYCARGWYYFDYWGHGTLVTVSS VL: DIVMTQTPLSLPVTPGEPASISCRASKSISKYLAWYQQKPGQAPRLLIYSGSTLQSGIPPRFSGSGYGTDFTLTINNIESEDAAYYFCQQHDESPYTFGEGTKVEIKR | 0.34
ADC-L1-0-8 (antibody, human IgG1, kappa, V domains shown, drug-linker L1-0 on cysteine thiols after TCEP reduction; positions not given; DAR 6.6 for the whole conjugate) VH: QVQLQESGPGLVKPSQTLSLTCTVSGYAFTAYNIHWVRQAPGQGLEWMGSFDPYDGGSSYNQKFKDRLTISKDTSKNQVVLTMTNMDPVDTATYYCARGWYYFDYWGHGTLVTVSS VL: DIVMTQTPLSLPVTPGEPASISCRASKSISKYLAWYQQKPGQAPRLLIYSGSTLQSGIPPRFSGSGYGTDFTLTINNIESEDAAYYFCQQHDESPYTFGEGTKVEIKR | 0.75
